Data from FireProtDB (doi:10.1074/jbc.m704364200).

B1: Prolactin, P01236 (parent)
chain: MNIKGSPWKGSLLLLLVSNLLLCQSVAPLPICPGGAARCQVTLRDLFDRAVVLSHYIHNLSSEMFSEFDKRYTHGRGFITKAINSCHTSSLATPEDKEQAQQMNQKDFLSLIVSILRSWNEPLYHLVTEVRGMQEAPEAILSKAVEIEEQTKRLLEGMELIVSQVHPETKENEIYPVWSGLPSLQMADEESRLSAYYNLLHCLRRDSHKIDNYLKLLKCRIIHNNNC

Variants of: B1
Settings: Homo sapiens; pH 7.4; Thermal; CD; NaH2PO4 100mM; structure 1RW5; whole UniProt chain shown

Variant | Tm [°C] | change of melting temperature, mutant - wild type (higher = more stable) [°C] | unfolding enthalpy (calorimetric) [kcal/mol]
G157R | 79 | -2.2 | 55.9
G157P | 70.8 | -10.3 | 50.1
G157Y | 96.8 | 15.7 | –
G157L | 96.8 | 15.7 | –
G157D | 84.2 | 3.1 | 58
G157V | 101 | 19.7 | –
G157F | 93.8 | 12.7 | –
G157N | 89.8 | 8.7 | –
